Kd data for 31 molecules are collected here from publication PMC10786891, “Massively parallel profiling of RNA-targeting CRISPR-Cas13d”.

To fix the notation:
B1: target 1 C2G,U11C (mixed)
RNA 1: CACCCGUGCAAAAAUGCAGGGGUCUAAAACUGAGCGGAUAACCUCUCUAUGG
RNA 2: GGGAAUGGAUCCACAUCUACGAAUUCGUACCAUAGAGAGGCUAUCCGCUGACCGAGAUCGGAAGAGCACACGU
B2: target 1 G5A,U8G (mixed)
RNA 1: B1 RNA 1
RNA 2: B1 RNA 2 with C41U, U44G, G47A, G50C
B3: target 1 insC 3' of 13,insG 3' of 1 (mixed)
RNA 1: B1 RNA 1
RNA 2: GGGAAUGGAUCCACAUCUACGAAUUCGUACCAUAGAGAGCGUUAUCCGCUCAGCCGAGAUCGGAAGAGCACACGU
B4: target 1 U19C,C22U (mixed)
RNA 1: B1 RNA 1
RNA 2: B1 RNA 2 with C30U, U33C, C41U, G50C
B5: target 1 complement block 9-12 (mixed)
RNA 1: B1 RNA 1
RNA 2: B1 RNA 2 with G40C, C41A, U42A, A43U, G50C
B6: target 1 insU 3' of 7,insG 3' of 1 (mixed)
RNA 1: B1 RNA 1
RNA 2: B3 RNA 2 with C40G, G41U, U43A, A44U, U45C, C46U
B7: target 1 A1C,U8C (mixed)
RNA 1: B1 RNA 1
RNA 2: B1 RNA 2 with C41U, U44C, G50C, A51C
B8: target 1 C2A,C22A (mixed)
RNA 1: B1 RNA 1
RNA 2: B1 RNA 2 with C30A, C41U, G50A
B9: target 1 G17U,U19C (mixed)
RNA 1: B1 RNA 1
RNA 2: B1 RNA 2 with U33C, G35U, C41U, G50C
B10: target 1 insC 3' of 13,insC 3' of 1 (mixed)
RNA 1: B1 RNA 1
RNA 2: B3 RNA 2 with G53C
B11: target 1 insU 3' of 20,insU 3' of 20 (mixed)
RNA 1: B1 RNA 1
RNA 2: GGGAAUGGAUCCACAUCUACGAAUUCGUACCAUUUAGAGAGGUUAUCCGCUCACCGAGAUCGGAAGAGCACACGU
B12: target 1 insG 3' of 19,insU 3' of 4 (mixed)
RNA 1: B1 RNA 1
RNA 2: GGGAAUGGAUCCACAUCUACGAAUUCGUACCAUGAGAGAGGUUAUCCGCUUCACCGAGAUCGGAAGAGCACACGU
B13: target 1 C7A,A9G (mixed)
RNA 1: B1 RNA 1
RNA 2: B1 RNA 2 with C41U, A43G, C45A, G50C
B14: target 1 U8G,A9G (mixed)
RNA 1: B1 RNA 1
RNA 2: B1 RNA 2 with C41U, A43G, U44G, G50C
B15: target 1 insG 3' of 10,insC 3' of 9 (mixed)
RNA 1: B1 RNA 1
RNA 2: B11 RNA 2 with U34A, U35G, A40G, G41U, G42U, U43G, U44A, A45C
B16: target 1 C6A,G13A (mixed)
RNA 1: B1 RNA 1
RNA 2: B1 RNA 2 with G39A, C41U, C46A, G50C
B17: target 1 del3,del17 (mixed)
RNA 1: B1 RNA 1
RNA 2: GGGAAUGGAUCCACAUCUACGAAUUCGUACCAUAAGAGGUUAUCCGCCACCGAGAUCGGAAGAGCACACGU
B18: target 1 U8C (mixed)
RNA 1: B1 RNA 1
RNA 2: B1 RNA 2 with C41U, U44C, G50C
B19: target 1 insA 3' of 19,insG 3' of 8 (mixed)
RNA 1: B1 RNA 1
RNA 2: B12 RNA 2 with G34A, C46G, G48C, C49G, U50C
B20: target 1 insC 3' of 13,insA 3' of 2 (mixed)
RNA 1: B1 RNA 1
RNA 2: B3 RNA 2 with G53A
B21: target 1 G12C,C22U (mixed)
RNA 1: B1 RNA 1
RNA 2: B1 RNA 2 with C30U, G40C, C41U, G50C
B22: target 1 A1G,U8C (mixed)
RNA 1: B1 RNA 1
RNA 2: B1 RNA 2 with C41U, U44C, G50C, A51G
B23: target 1 del11,del22 (mixed)
RNA 1: B1 RNA 1
RNA 2: GGGAAUGGAUCCACAUCUACGAAUUCGUACAUAGAGAGGUAUCCGCUCACCGAGAUCGGAAGAGCACACGU
B24: target 1 insC 3' of 19,insA 3' of 19 (mixed)
RNA 1: B1 RNA 1
RNA 2: B11 RNA 2 with U34C, U35A
B25: target 1 insU 3' of 12,insG 3' of 10 (mixed)
RNA 1: B1 RNA 1
RNA 2: B11 RNA 2 with U34A, U35G, A40G, G41U, G42U, U44G
B26: target 1 G12A,A16G (mixed)
RNA 1: B1 RNA 1
RNA 2: B1 RNA 2 with A36G, G40A, C41U, G50C
B27: target 1 complement block 3-5 (mixed)
RNA 1: B1 RNA 1
RNA 2: B1 RNA 2 with C41U, G47C, C48G, U49A, G50C
B28: target 1 insA 3' of 19,insC 3' of 11 (mixed)
RNA 1: B1 RNA 1
RNA 2: B12 RNA 2 with G34A, U43C, A44U, U45A, C46U, G48C, C49G, U50C
B29: target 1 insC 3' of 17,insC 3' of 13 (mixed)
RNA 1: B1 RNA 1
RNA 2: B11 RNA 2 with U34A, U35G, A36C, G37A, A38G, G39A, A40G, G41C
B30: target 1 insC 3' of 14,insG 3' of 7 (mixed)
RNA 1: B1 RNA 1
RNA 2: B3 RNA 2 with G39C, C40G, C47G, G48C, C49G, U50C, C51U, A52C, G53A
B31: target 1 insA 3' of 3,insG 3' of 2 (mixed)
RNA 1: B1 RNA 1
RNA 2: GGGAAUGGAUCCACAUCUACGAAUUCGUACCAUAGAGAGGUUAUCCGCUACGACCGAGAUCGGAAGAGCACACGU

Numbering of substitutions follows the chain as printed. In names and notes the source's numbering stands.

In the data set the target is T1, EsCas13d, nuclease-dead (Eubacterium siraeum, UniProt B0MS50, R295A;H300A;R849A;H854A).
T1 sequence: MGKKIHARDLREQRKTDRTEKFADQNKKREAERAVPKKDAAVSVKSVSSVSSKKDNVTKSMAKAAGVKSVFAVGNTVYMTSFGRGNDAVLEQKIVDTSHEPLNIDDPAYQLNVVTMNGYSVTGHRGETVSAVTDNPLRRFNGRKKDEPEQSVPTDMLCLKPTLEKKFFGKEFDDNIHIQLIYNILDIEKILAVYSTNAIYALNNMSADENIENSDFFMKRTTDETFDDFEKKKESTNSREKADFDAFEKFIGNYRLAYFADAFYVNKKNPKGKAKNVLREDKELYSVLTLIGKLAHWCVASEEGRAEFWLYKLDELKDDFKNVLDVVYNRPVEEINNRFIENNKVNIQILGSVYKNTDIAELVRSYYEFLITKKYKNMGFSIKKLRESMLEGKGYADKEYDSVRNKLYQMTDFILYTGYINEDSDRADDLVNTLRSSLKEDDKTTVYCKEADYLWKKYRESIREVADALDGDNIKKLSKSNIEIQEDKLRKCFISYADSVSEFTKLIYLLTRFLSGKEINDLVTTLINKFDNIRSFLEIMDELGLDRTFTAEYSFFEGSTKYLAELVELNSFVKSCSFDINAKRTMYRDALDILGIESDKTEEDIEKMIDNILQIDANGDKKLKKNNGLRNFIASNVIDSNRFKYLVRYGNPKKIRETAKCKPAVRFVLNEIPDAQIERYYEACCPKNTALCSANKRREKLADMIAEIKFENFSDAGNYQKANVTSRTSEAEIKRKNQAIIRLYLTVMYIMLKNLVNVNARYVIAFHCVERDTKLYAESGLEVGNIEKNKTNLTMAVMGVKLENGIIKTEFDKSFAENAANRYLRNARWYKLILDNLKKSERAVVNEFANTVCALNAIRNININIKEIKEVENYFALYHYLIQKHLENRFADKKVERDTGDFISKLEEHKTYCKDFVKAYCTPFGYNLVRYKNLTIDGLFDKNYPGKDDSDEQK
Nature of the data set: crRNA (strand 1, pre-loaded); Mg2+; 40 mM Tris-HCl pH 7.5, 150 mM NaCl, 6 mM MgCl2, 1 mM DTT, 0.1% Tween-20, 0.2 mg/ml BSA; 25 C; 10 min per concentration, then washed. The following applies: tags: His6-TwinStrep-SUMO cleaved; N-terminal SNAP kept (SNAP-Surface 488); label: 3' end held by stalled T7 RNA polymerase.
B1: the Kd (in general, the free concentration of one partner at which half of the binding sites on the other are occupied at equilibrium, for simple one-to-one binding) stood at 0.0074 ± 0.0004 µM. As to B2, the Kd was determined as 0.038 ± 0.0024 µM. In the case of B3 it was 0.00917 ± 0.0003 µM; in that of B4, 0.045 ± 0.006 µM. In the case of B5 it was 0.0199 ± 0.0027 µM; in that of B6, 0.0138 ± 0.0006 µM; in that of B7, 0.0081 ± 0.0004 µM. Molecule B8 yielded a dissociation constant Kd of 0.0178 ± 0.0033 µM. In the case of B9 it was 0.0144 ± 0.0008 µM; in that of B10, 0.0089 ± 0.0006 µM; in that of B11, 0.0135 ± 0.001 µM.

Turning to B12, the Kd was determined as 0.053 ± 0.006 µM.

For the molecule B13, the affinity, expressed as Kd, was 0.0115 ± 0.0005 µM.

With B14, the affinity, expressed as Kd, was 0.0191 ± 0.0013 µM. In the case of B15, the affinity, expressed as Kd, was 0.0149 ± 0.0006 µM. The value for B16 was 0.0066 ± 0.0004 µM; that for B17 was 0.067 ± 0.017 µM. In the case of B18 it was 0.0112 ± 0.0004 µM; in that of B19, 0.0327 ± 0.0023 µM; in that of B20, 0.009 ± 0.0005 µM.

In the case of B21, the dissociation constant (Kd) came to 0.0235 ± 0.0015 µM. Molecule B22 registered a Kd of 0.0102 ± 0.0009 µM. In the case of B23 it was 0.078 ± 0.033 µM; in that of B24, 0.0313 ± 0.0029 µM. The value for B25 was 0.0131 ± 0.0005 µM. B26: the Kd amounted to 0.048 ± 0.005 µM. In the case of B27 it was 0.0105 ± 0.001 µM. In the case of B28 it was 0.1 ± 0.04 µM; in that of B29, 0.048 ± 0.007 µM; in that of B30, 0.041 ± 0.008 µM.

The molecule B31 had a Kd of 0.00705 ± 0.00031 µM.
